Test results taken from patent US20220380473A1, “ANTI-GAL3 ANTIBODIES AND USES THEREOF” (TrueBinding, Inc., priority 2019, published 2022).
Blank lines part the entries; values can stand above or below the molecule they belong to.

What was measured:
[1] = target: T1, interaction between Gal3 and TIM-3 (Mus musculus, UniProt P16110); assay: Blocking ELISA, mouse Gal3 coated plate and mouse TIM-3 Fc; assay type: binding; conditions: mGal3 coated plate, mouse TIM-3 Fc
T1 construct: purchased BioLegend (mouse Gal3); R&D systems (mouse TIM-3 Fc)
T1 sequence (P16110 2-264 limits assumed): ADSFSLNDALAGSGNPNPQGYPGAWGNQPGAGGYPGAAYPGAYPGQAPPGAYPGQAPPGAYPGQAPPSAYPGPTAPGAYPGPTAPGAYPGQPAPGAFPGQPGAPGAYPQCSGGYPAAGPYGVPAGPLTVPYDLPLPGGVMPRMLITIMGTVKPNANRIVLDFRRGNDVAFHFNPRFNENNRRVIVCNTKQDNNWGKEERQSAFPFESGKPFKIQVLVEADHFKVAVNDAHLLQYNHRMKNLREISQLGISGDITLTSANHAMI
Description: ELISA assays were also performed to test the interaction between Gal3 and TIM-3. 96 well ELISA plates (ThermoFisher Scientific) were coated with mouse Gal3 protein (BioLegend, San Diego, Calif.) in PBS or human Gal9 protein (R&D systems) in PBS or phosphatidylserine (PS) (Sigma) in ethanol and incubated at 4° C. for overnight. The plate was washed three times with TBST and then blocked with PBS buffer containing 2% BSA at room temperature for 1 hour. In FIG. 5A, different anti Gal3 antibodies, i.e. mGal3 polyclonal antibody (R&D systems), mAb IMT001 (also described in WO 2019/023247, hereby expressly incorporated by reference in its entirety), mAb M3/38 (Thermofisher Scientific) (FIG. 5A), were added to well that has been coated with Gal3. The antibodies were incubated for 10 minutes and mouse TIM-3 Fc were then added to the plates and incubated for an additional one-hour incubation. Plates were then washed for three times and followed by incubation with anti-human-IgG-HRP (Jackson ImmunoResearch) for 1 h at room temperature. The color was developed with TMB subtract (GeneTex, Irvine, Calif.) after three time washes with TBST and the reaction was terminated with 1N HCl. The optical density (OD) was read at 450 nm. The results were expressed as the average OD of duplicates±SD. […]

Gal9 binding to TIM-3 = target: T2, Gal9 binding to TIM-3 (Homo sapiens, UniProt O00182); assay: Sugar-dependence ELISA, hGal9 coated plate and mouse TIM-3 Fc
T2 construct: purchased R&D systems
T2 sequence (O00182 whole entry): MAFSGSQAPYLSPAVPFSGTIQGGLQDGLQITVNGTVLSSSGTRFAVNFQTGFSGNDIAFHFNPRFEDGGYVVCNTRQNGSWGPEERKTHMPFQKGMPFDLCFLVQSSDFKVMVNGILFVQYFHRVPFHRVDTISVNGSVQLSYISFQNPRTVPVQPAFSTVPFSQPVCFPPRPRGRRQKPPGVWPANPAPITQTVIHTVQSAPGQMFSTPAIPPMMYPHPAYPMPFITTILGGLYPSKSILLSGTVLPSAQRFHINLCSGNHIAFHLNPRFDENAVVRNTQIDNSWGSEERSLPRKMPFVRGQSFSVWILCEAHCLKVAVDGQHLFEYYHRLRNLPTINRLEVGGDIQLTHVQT

Galectin-3 = Galectin-3 (Homo sapiens, UniProt P17931); assay: SPR (BiacoreT200) binding affinity; conditions: 25° C., read-out: hGal-3 KD
Sequence of Galectin-3 (P17931 whole entry): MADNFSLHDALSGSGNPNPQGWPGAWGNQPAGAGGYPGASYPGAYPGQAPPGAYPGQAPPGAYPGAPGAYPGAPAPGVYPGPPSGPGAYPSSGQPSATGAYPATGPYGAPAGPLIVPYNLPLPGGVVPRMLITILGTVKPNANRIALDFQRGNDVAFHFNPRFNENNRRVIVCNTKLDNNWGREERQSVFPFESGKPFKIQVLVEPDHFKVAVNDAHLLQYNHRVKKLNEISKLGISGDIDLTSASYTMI
Description: GAL3-binding antibodies were evaluated for their binding affinity by SPR. Kinetics experiments were performed on BiacoreT200 at 25° C. in high performance mode. Ligand proteins, purified antibodies were captured onto a CM5 chip coupled with anti-human Fc or anti-mouse Fc antibody, three antibodies at a time onto flow cell #2, 3, and 4, respectively, while flow cell #1 was used as reference. The analyte Galectin-3 in HBS-EP buffer was injected over all four flow cells at concentrations of 100, 50, 25, 12.5, 6.25, 3.125 and 0 nM at a flow rate of 30 μL/min. The complex was allowed to associate and dissociate for 240 and 300 seconds, respectively. The surfaces were regenerated with a 30 second injection of 10 mM Glycine pH 1.7 (flow rate 30 μL/min). The data were fit to a simple 1:1 interaction model using the global data analysis option available within BiacoreT200 Evaluation software V2.0. The affinity of Gal3 monoclonal antibodies was confirmed to be […] 30 nM for all antibodies studied (Table 24.1). Antibodies with affinity less than 2E-7 were selected for further characterization.

[2] = target: T3, association of GAL3 and TIM3 (Homo sapiens, UniProt P17931); assay: GAL3-TIM3 blocking ELISA (Examples 24, 27); assay type: binding; conditions: 3 ug/mL antibody
T3 construct: full-length human Galectin-3 protein (Acro Biosystems, GA3-H5129); linker-spaced 6-histidine tag; purchased Acro Biosystems GA3-H5129 (Gal3); TM3-H5229 (TIM-3)
T3 sequence (P17931 2-250 limits assumed): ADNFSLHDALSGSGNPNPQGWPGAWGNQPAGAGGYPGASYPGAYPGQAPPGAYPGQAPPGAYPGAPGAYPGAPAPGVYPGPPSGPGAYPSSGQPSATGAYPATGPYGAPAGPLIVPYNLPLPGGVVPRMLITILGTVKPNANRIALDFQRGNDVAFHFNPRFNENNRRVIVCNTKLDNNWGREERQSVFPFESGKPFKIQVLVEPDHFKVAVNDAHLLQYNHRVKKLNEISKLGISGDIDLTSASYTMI
Description: Positively scoring wells were evaluated for the ability to block association of GAL3 and TIM3. To identify GAL3-targeted antibodies with the ability to block the interaction of GAL3 and TIM3, purified GAL3 and TIM3 proteins were incubated in the presence of GAL3-immunization hybridoma supernatants described above, or without antibody, and protein interaction was evaluated by ELISA. Human Galectin-3 protein (Acro Biosystems, GA3-H5129) was diluted in PBS (Corning, 21-030-CM) to a concentration of 3 μg/ml and added to the wells of a 96-well ELISA plate (Thermo Fisher, 44-2404-21). After incubating the plate at 4° C. overnight, the plate was washed three times with PBST (PBS with 0.05% Tween 20 [VWR, 0777]). The plate was then blocked for an hour with 2% BSA (EMD Millipore, 126609) in PBST at room temperature with gentle rocking. Thereafter, the 2% BSA in PBST was discarded and antibody or inhibitor (3-fold dilutions beginning at 20 μg/ml, 60 μg/ml, or 180 μM) in 2% BSA in PBST was added to the wells. Afterwards, 2 μg/ml of human TIM3 (Aero Biosystems, TM3-H5229) in 2% BSA in PBST was added to the antibody or inhibitor in the wells in a 1:1 ratio. The plate was incubated for an hour at room temperature with gentle rocking. Thereafter, the plate was washed three times with PBST, and 0.3 μg/ml of human TIM3 Biotinylated Antibody (R&D Systems, BAF2365) in 2% BSA in PBST was added to the wells. The plate was incubated for an hour with gentle rocking and then washed three times with PBST. Avidin-HRP (1:2000) was then added to the wells. The plate was incubated at room temperature for an hour with gentle rocking and then washed three times with PBST. TMB substrate (Thermo Scientific, 34029) was then added to each well. The reaction was stopped with 1M HCl (JT Baker, 5620-02) and read using a plate reader (Molecular Devices) at absorbance of 450 nm.

hGal3 peptide = assay: Gal3 peptide library ELISA (Example 25); assay type: binding, human; conditions: hGal3 peptide No. bound
Description: To identify the epitopes to which Gal3 antibodies with and without Gal3-TIM3 blocking activity bound, a library of 20 amino acid peptides representing portions of Gal3, summarized in Table 24.1, was produced and the ability to bind Gal3 antibodies was evaluated by ELISA.
At least 2 μg/ml of hGal3 peptide in 50 μl of PBS or 0.1 μg/ml of full-length human Gal3 protein (GenScript) and human Galectin-3 protein (Acro Biosystems, GA3-H5129) were diluted in PBS (Corning, 21-030-CM) to concentrations of at least 2 μg/ml or 0.1 μg/ml, respectively, and added to the wells of a 96-well ELISA plate (Thermo Fisher, 44-2404-21). After incubating the plate at 4° C. overnight, the plate was washed three times with PBST (PBS with 0.05% Tween 20 [VWR, 0777]). The plate was then blocked for an hour with 2% BSA (EMD Millipore, 126609) in PBST at room temperature with gentle rocking. Thereafter, the 2% BSA in PBST was discarded and human Galectin-3 hybridoma supernatants or antibodies were diluted in 2% BSA in PBST to concentrations of at least 0.1 μg/ml and added to the wells. The plate was incubated for an hour at room temperature with gentle rocking and then washed three times with PBST. Afterwards, Goat Anti-Mouse IgG-HRP (Jackson ImmunoResearch, 115-036-1461) or Goat Anti-Rat IgG HRP (abcam, ab205720) diluted in 2% BSA in PBST (1:4000) were added to the wells. The plate was incubated for 30 minutes to 1 hour at room temperature with gentle rocking and then washed three times with PB ST. TMB substrate (Thermo Scientific, 34029) was then added to each well. The reaction was stopped with 1M HCl (JT Baker, 5620-02) and read using a plate reader (Molecular Devices) at absorbance of 450 nm.

human Gal3-His = human Gal3-His (Homo sapiens, UniProt P17931); assay: Antibody binning by biolayer interferometry (Gator); assay type: binding; conditions: antibody competition
Sequence of human Gal3-His (P17931 whole entry): as the sequence (P17931 whole entry) above
Description: To determine whether Gal3-binding antibodies with Gal3-TIM3 blocking activity bind to the same or overlapping regions of the Gal3 molecule, antibody binning assays were performed to assess the ability of antibodies to simultaneously bind Gal3. Amine-reactive probes were loaded onto a Gator biosensor (Probe Life, Palo Alto, Calif.), equilibrated in dH20 for 60 seconds, dipped into 100 μl EDC 0.2M/NHS 0.05M activation buffer for 30 seconds, then dipped into a solution of […] human Gal3-His in 10 mM NaOAc buffer, pH 5 until binding was saturated, and quenched in 1 M ethanolamine pH 8.5 for 300 seconds. Following Gal3-His loading, tips were dipped in 20 μg/mL saturating antibody, then successively dipped into 5 μg/mL competing antibody.

block of Gal3 binding to TIM-3 [1]: minimal | reduction in signal, Gal9-TIM-3 binding (Gal9 binding to TIM-3; 25 mM α-Lactose present vs absent): more than 10 fold | block of Gal9 binding to TIM-3 (Gal9 binding to TIM-3; 25 mM α-Lactose, hGal9 coated plate): blocked
Molecule: OC[C@H]1O[C@@H](O[C@H]2[C@H](O)[C@@H](O)[C@@H](O)O[C@@H]2CO)[C@H](O)[C@@H](O)[C@H]1O [lactose, α-Lactose, reference compound]

Kd (Galectin-3): 4.13 nM | GAL3-TIM3 Blocking @ 3 ug/mL [2]: 0% | Bin (human Gal3-His): 11
B1: 24D12.2H9: murine anti-Gal3 antibody (antibody, V domains shown)
VH: QVQLKQSGPGLVQPSQSLSITCTVSGFSLTSYGVHWVRQAPGKGLEWLGVIWSGGSTDYNAAFMSRLSISKDNSKSQVFFKMNSLQADDTAIYYCAKSPDGYDVAWFGYWGQGTLVTVSA
VL: DIVMTQSHKFMSTSVGDRVSITCKASQDVRTAVAWYQQKPGQSPKLLIYWASTRHTGVPDRFTGSGSGTDFTLTLSNVQSEDLADYFCQQYSSYPWTFGGGTKLEIK
modifications: VH of 24D12.2H9; VL of 24D12.2H9
notes: murine anti-Gal3 antibody
Epitope Mapping (hGal3 peptide): Non-linear

Kd (Galectin-3): 1.9 nM | GAL3-TIM3 Blocking @ 3 ug/mL [2]: 12% | Bin (human Gal3-His): 10
B2: 12G5.D7: murine anti-Gal3 antibody (antibody, V domains shown)
VH: QVQLKQSGAELVRPGASVKLSCKASGYTFTDYYINWVKQRPGQGLEWIARIYPGTGNTDYNEKFKGRATLTAEKSSSTAYMQLSSLTSEDSAVYFCARFAYYYGSGGYFDYWGHGTTLTVSS
VL: DILMTQSPSSMSVSLGDTVSITCHASQGINSNMGWLQQKPGKSFKGLIYHATNLEDGVPSRFSGSGSGADYSLTISSLESEDFADYYCVQYAQFPPTFGSGTKLEIK
modifications: VH of 12G5.D7; VL of 12G5.D7
notes: murine anti-Gal3 antibody
Epitope Mapping (hGal3 peptide): Non-linear
